The target of the assay is human GITR (full length, on cells) (human) (UniProt Q9Y5U5). The assay is described as follows: FACS dot plot, spleen cells of GITR humanized (B-hGITR) mice, FITC against mTcRβ PerCP [panel hIgG1].
Chain of human GITR (full length, on cells) (human) (Q9Y5U5 26-241): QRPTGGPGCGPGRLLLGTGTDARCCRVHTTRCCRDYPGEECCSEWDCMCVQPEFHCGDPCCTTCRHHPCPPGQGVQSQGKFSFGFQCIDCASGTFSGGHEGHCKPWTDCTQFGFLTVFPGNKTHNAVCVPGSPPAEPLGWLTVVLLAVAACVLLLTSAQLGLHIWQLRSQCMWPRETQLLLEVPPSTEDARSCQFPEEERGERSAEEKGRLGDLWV

The substance isotype control IgG (antibody) returned an FL3-H, FL1-H subset (percent of cells in the FITC-high, mTcRβ-positive gate) of 1.08%.

For the origin of these results see patent US20220119541A1.
